Reference: a protein production outcome set (Wang et al. 2014)

Test: label from the status in PepcDB records
For “MSDKLLIMFHGVGSNGVDLLPIAQYWQRQIDGLDIAYPNAPFPFMHSHEVFEWFSLTGITPQNRYERIVDAREYFDQTILRTLQEHKFQGDLSQLIFCGFSQGTIMCLDAIVSGRWSVAGCIGFSGRLASPVESDVRTTKISLMHGEADAVIAVEEGREAYHTLNEAGFDVQLETYTGLGHSVNELELKKGLEFLQAL”, the protein production was “failed”.
For “MSDKRNPRISSRKQPQQARSSELVASILEAAVQVLASEGAQRFTTARVAERAGVSIGSLYQYFPNKAAILFRLQSDEWRRTTRLLGEILEDTTRPPLERLRRLVLAFVRSECEEAAIRVALSDAAPLYRDADEAREVKAEGARVFQAFLREALPEVAEAERSLAGDLLTTTLGAVGKQFSEQPRSEAEIERYAEALADMLCAYLAALGER”, the protein production was “not failed”.
In the case of “MSDLLPLISVYGYVAALLLISEKTLKNEVVSRKFLHIMVGNIAFILPFFESRFVMAFLAAFPFVVLTFLMSPHSPVKLSSRTSVAGHGLGLVYYSIAWTVLAYAFFDRPDVIAVGIMAMSYGDGLASLIGGRYGKRKFRILGDEKSLEGSVAMFLGCVASFSVVSLYYHGSAGPLLLPLAAFATVVEAVTPKGLDNLSVSILTAILYFWMA”, the protein production is reported as “failed”.
With “MSDLQSLQPKLLWQWFDQICAIPHPSYKEEQLAQFIINWAKTKGFFAERDEVGNVLIRKPATVGMENRKPVVLQAHLDMVPQANEGTNHNFDQDPILPYIDGDWVKAKGTTLGADNGIGMASALAVLESNDIAHPELEVLLTMTEERGMEGAIGLRPNWLRSEILINTDTEENGEIYIGCAGGENADLELPIEYQVNNFEHCYQVVLKGLRGGHSGVDIHTGRANAIKVLLRFLAELQQNQPHFDFTLANIRGGSIRNAIPRESVATLVFNGDITVLQSAVQKFADVIKAELALTEPNLIFTLEKVEKPQQVFSSQCTKNIIHCLNVLPNGVVRNSDVIENVVETSLSIGVLKTEDNFVRSTMLVRSLIESGKSYVASLLKSLASLAQGNINLSGDYPGWEPQSHSDILDLTKTIYAQVLGTDPEIKVIHAGLECGLLKKIYPTIDMVSIGPTIRNAHSPDEKVHIPAVETYWKVLTGILAHIPSR” the protein production was “not failed”.
With “MSDLVRVERKGRVTTVILNRPASRNAVNGPTAAALCAAFEQFDRDDAASVAVLWGAGGTFCAGADLKAFGTPEANSVHRTGPGPMGPSRMMLSKPVIAAVSGYAVAGGLELALWCDLRVAEEDAVFGVFCRRWGVPLIDGGTVRLPRLIGHSRAMDMILTGRGVPADEALAMGLANRVVPKGQARQAAEELAAQLAALPQQCLRSDRLSALHQWGLPESAALDLEFASIARVAGEALEGARRFAAGAGRHGAPAPRAEQGDTL” the protein production was “not failed”.
In the case of “MSDPGFEYAPIGLVELENRVIRRCNLHFASMFGGQESEYRDMPLLRLYPSHEDFERIGKRGLQVMRETGYYTDERIMRRRDGDLFWCRARGKSLTPDDPFRHGIWSFADISEERRVVELTPREREVALLTCRGLSAKEVGVELGLSYRTIEAHRARLLQKFGARKLPELVAKLSGMPL”, the protein production is reported as “failed”.
With “MSDPGNEQNGDGIDPAIVEVLLVLREAGIENGATPWSLPKIAKRAQLPMSVLRRVLTQLQAAGLADVSVEADGRGHASLTQEGAALAAQLFPDPF” the protein production was “not failed”.
With “MSDPYERVNGGRLAFKGGDLATRKSIEKKKKKKQKKNKEKLDGVEDGAKTAPDGSPPPAAAAGDEDIYSIDAAKKKKYDDLFPVEAKKFGYIPKANFESREDALDDRVKKKADRYCK” the protein production was “failed”.
With “MSDQKNRRNALIGAAFLMATSAIGPGFLTQTATFTQALAASFGFVILLSILLDIGAQLNIWRIVAVSEKQAQDIANQVLPGAGYFLAVLIVMGGLAFNIGNVGGAGLGLNLLTGLSPETGAVISGVIAIGVFLFKEAGKVMDKFAQVMGFVMIALTVYVAWQANPPLADAAVHTFMPEKLDAMAIVTLVGGTVGGYITFAGAHRLLDAGIKGKSALPEVSQSSVRAILIASIMRIVLFLAVLGVVSQGVQLNPDNPASTPFEYAAGYIGLLIFGVVIWAASITSVIGAAYTSVSFFSGLSPSIERNKNKWIIAFIAVSTAVFSTIGKPAQVLVFVGALNGLILPISLGLILIAAYKTKIVGDYKHPLWLTVSGVIVVGLMAVLSAITISKYIGGLFG” the protein production was “failed”.
In the case of “MSDQPMNEVQDNAAPANPWLELRRLTPARIALGRTGTSLPTCAQLDFQAAHAQARDAVHLAFDHAAISAQLAEKGRETILLHSAAADRDSYLQRPDLGRRLNDESAQTLRDYAAAHPGGLDLAVVVADGLSALAVHRHAVPFLTRLEEQASAEGWTLSPVLMVEQGRVAVADEIGELLGAKMVVILIGERPGLSSPDSLGLYFTYAPKVGLNDAHRNCISNVRLEGLSYAMAAHRLLYLMREACKRQISGVSLKDEAQLNTLESDDSAENSDRKIGNFLLDGPAVPH”, the protein production is reported as “not failed”.
In the case of “MSDRKTMWDERYDTTDFVYGREPNAFLAEVVQQIPPGDVLCLAEGEGRNAVFLAKQGHRVLAVDSSAVGLVKAARLAEESGVRIETETADLAEFAIEPVCWDAIVSIFCHVPPQVRRALHRKVVEGLRPGGLFILEAYTPAQLKLRTGGPPTEEVMMTLAGLREELAGLEFLQAREIEREVVEGRFHTGRGAVVQVVARKP”, the protein production is reported as “failed”.
With “MSDRSSLFDVRSSTSVTLDQVVRRDTVEIPDEAALAMPVQPLSFWQGGARRATALTQDMNLRRWMLGLMTIAMGVAGWKASFDTIALGGVTRLEAVVLTLLAPLFLALSLWFCTALIGFVVLMGRPKDPLGIDSEAPMPKLHTRTAILMPVYNEDAAAVFARLRAMDASIAETGSARNFDIFVISDTRDAQVALAEQACFARFRREANCNVYYRIRKENTGRKAGNVADWVSRWGSAYEHMLVLDADSLMTGEAMVRLADAMERHPGAGLIQTMPMIINGQTIFARTLQFATRLYGRVAWTGLAWWSGSESSFWGHNAIVRTRAFAETCGLPHLPGPKPFGGEVMSHDALESALLRRGGWSVHLAPYLDGSYEESPSNLLDFATRDRRWCRGNIQHVPLIALPGLHWMSRMHLVIGVLSYALSPLWFFCLSAGLISRALMPELKKAAFTMADLKAAAHALIDWSEIQATAWAMIITFVLLFGPKILGAILVLARKGEVKGFGGKRRMAAGLGVEMLLSALVAPMLMFTQTRAIVEILAGKVGGWAAQRRDADKVDFKEAWAAMGWISLSGLILAASFWFTPDLLTATAPILAGLVLAVPLTMLGAHKVAGLKLKANGLFMTPEERRPPAIVRAAVGAACEPPIRWFARNGRPIGPTTKIRDAA” the protein production was “failed”.
With “MSDSLPQRNGGQILVEALRRNAVDTVYCIPGESYLPVLDALYDTDGIRTVVTRHEGAASNMADAYGKLTGRPGICFVTRGPGATHAANGVHTAQQDSTPMILFVGQVESAFKGREAFQEVDYVQMFSGLAKWAVEIDRIERIPEIVGRAFSVATSGRPGPVVVALPEEILFGSAQVADAPEPRVLPGRPGATAMAELRELLANARRPLLVLGGSGWDSAARKRLGAFVEANGLPVATSFRRQDLFDNRDPHYAGQLGFGAAPALLERLRQADLLLVVGARLGETPSAGYSLVRSPAPAQTLIHVHPDSAELNRVYLARLPIQATPCAFAEALADLAPLPSSTWQDWREAAHADYLAYSTPAASDPAVQGVDLASVVAYLSENLPDDAVIANGAGNYAVWVHRFYRYRQARTQLAPTNGAMGYGLPAAIAASLRDPQRSVVCFAGDGCFMMYPQELATAAQFGATPVVIVVNNGMLGTIRMHQEREYPGRVSATRLDNPDFVALARAFGAHAERVECSADFPAAFRRARESGRPALLELLTDPRQITPQA” the protein production was “failed”.
For “MSDTPQAILLMGPTASGKTGLALELARRFPVEIVSVDSALVYRDMDIGTAKPTAEEMAACPHHLIDVISPLQSYSAAQFHADANRLIADIQARGKLPLLVGGTMLYYKALLEGLSDLPQADAALRAELDADAALLGWPAMHARLAELDPATASRLNPNDSQRIHRALEVCLLSGKPMSELIAQGKEAAAGFRFLPLALVPRERGWLHARIAERFRIMLEQGFLDEVSRLRAKYPELTLNLPSMRCVGYRQAWEHQDGLYGHDEFVERGVAATRQLAKRQLTWTRSLDAIPVDAQRDGLAGLLGDAVDDFLAGRPPAESLRYAGDFLEHHHHHH”, the protein production was “not failed”.
For “MSDVEDVPETQLEIDVSDGAGLEDEDDDDMEQITAQKVLEIIETAWINEMCAPEILPSQTDMLELMVSQVAHMEEQMRDLDKNDFRAVVHSMELERVRYIMASYLRCRLQKIETFTQHILNQEESREPDDKRLSPEETKFAQEFASNVDEYFHKVATQYMPNQQRGEAEQRIVTPNLMSHVFLKANVAVPAVIVGVDDEEVDMAAGSQHIIPYQLVADLIQNNQAQLI”, the protein production was “failed”.
